Where a chain is given by its changes, count along the chain named.
B1: 3F12 항체 (antibody, V domains shown)
VH: QVQLQESGPDLVKPSQSLSLTCTVTGYSITSGYSWHWIRQFPGNKLEWMGYIYYRGSTNYNPSLKSRISITRDTSKNQFFLLLKSVTTEDTATYYCAREAYWGQGTLVTVSA
VL: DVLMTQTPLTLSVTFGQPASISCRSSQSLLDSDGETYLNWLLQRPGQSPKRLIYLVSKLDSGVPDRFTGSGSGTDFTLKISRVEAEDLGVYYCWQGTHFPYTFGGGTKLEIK
notes: Mouse monoclonal antibody from a hybridoma; Biotinylated when used as detecting antibody in the sandwich ELISA; also called 항-BAG2 항체 3F12
B2: 2A11 항체 (antibody, V domains shown)
VH: QVQLQQPGAELVRPGASVTLSCKASGYTFTDYEMHWVKQTPVHGLEWIGIIDPETGGTAYNQKFKGKATLTADKSSSTAYMELRSLTSEDSAVYYCTRGKFYYSGRDYAMDYWGQGTSVTVSS
VL: DVLMTQTPLSLPVSLGDQASISCRSSQSIVHSNGNTYLEWYLQKPGQSPKLLIYKVSNRFSGVPDRFSGSGSGTDFTLKISRVEAEDLGVYFCFQGSQVPPTFGGGTKLEIK
notes: Mouse monoclonal antibody from a hybridoma; also called 항-BAG2 항체 2A11
B3: 4C2 항체 (antibody, V domains shown)
VH: B2 VH with G57A
VL: B2 VL with I53F
notes: Mouse monoclonal antibody from a hybridoma; also called 항-BAG2 항체 4C2
B4: 8C4 항체 (antibody, V domains shown)
VH: B2 VH with G56A
VL: B2 VL with I53F
notes: Mouse monoclonal antibody from a hybridoma; also called 항-BAG2 항체 8C4
B5: 3G8 항체 (antibody, V domains shown)
VH: QIQLVQSGPELKKPGETVKISCKASGYSFTKYGMNWVKQAPGKDIKWMGWINTNTGEATYGEEVKGRFAFSLETSASTAYLQINNLKNEDTATYFCARLGLRYLDYWGQGTTLTVSS
VL: DIVMTQSPASLVVSLGQRATISCRASKSVSTSDYSYMHWYQQKPGQPPKVLIYLASNLESGVPARFSGSGSGTDFTLNIHPVEEEDAATYYCQHNRELPPTFGAGTKLELK
notes: Mouse monoclonal antibody from a hybridoma; Biotinylated when used as detecting antibody in the sandwich ELISA; also called 항-BAG2 항체 3G8

Biological target: T1, 인간 BAG2 단백질 (human, UniProt O95816 2-211, limits assumed)
T1 construct: also called BAG2 폴리펩티드; human BAG2
Test: immunoblot screening of hybridomas

T1 sequence (O95816 2-211 limits assumed): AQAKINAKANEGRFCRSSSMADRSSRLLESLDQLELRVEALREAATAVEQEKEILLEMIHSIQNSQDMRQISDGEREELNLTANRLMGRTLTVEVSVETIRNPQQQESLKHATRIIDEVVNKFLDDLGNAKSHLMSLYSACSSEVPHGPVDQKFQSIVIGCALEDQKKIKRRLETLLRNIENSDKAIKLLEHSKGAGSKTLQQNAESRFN

Row | binding result | Binder
1 | binds | B1
2 | binds | B2

Biological target: T1, 인간 BAG2 단백질
Test: immunoblot on MDA-MB-231 cell lysate

Row | binding result | Binder
3 | binds | B3
4 | binds | B4
5 | binds | B5

Biological target: T2, GST-Bag Full (GST와 융합된 전장 BAG2 폴리펩티드) (human, UniProt O95816 1-211)
T2 construct: Expressed in HEK293T cells, detected in lysate at about 50 kDa by immunoblot; not shown: GST tag, about 26 kDa, of the pcDNA3.1+/GST vector (NovoPro Bioscience)
Test: immunoblot on lysate of HEK293T cells with the GST-Bag Full vector, signal at about 50 kDa

T2 sequence (O95816 whole entry): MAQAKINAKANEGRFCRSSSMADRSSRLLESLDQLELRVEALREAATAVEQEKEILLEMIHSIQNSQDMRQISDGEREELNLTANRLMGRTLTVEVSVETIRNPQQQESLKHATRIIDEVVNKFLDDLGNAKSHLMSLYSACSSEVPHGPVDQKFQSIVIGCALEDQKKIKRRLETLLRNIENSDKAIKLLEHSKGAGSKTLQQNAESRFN

Row | binding result | Binder
6 | binds | B1
7 | binds | B2
8 | binds | B3
9 | binds | B4
10 | binds | B5
